Data: the DeepSol protein solubility set

Experiment: soluble on expression in E. coli; label from the status in PepcDB or PDB records

| Sequence | soluble on expression in E. coli |
| --- | --- |
| MGSDKIHHHHHHMKHMNNSVDQQIALFGQSGSGKTALLCSFYGAARDSTQSEGQLFELSAKDDRHTKLMKMYLGMKEDSLAPPQNRFESHKTVFSLKQKNIPIKDAAKSDQVNLTWHDYPGEWFEGGAVTDSEKQDKVETFRNLLGSDVALFLVDGQKLHDYANEEERYLSYLFDGFIENLNQIKDAILEGGKQLQQFPRIWVIALSKADLWPDLQVKDFENLLNKKAGNEIIALRSKLLEFIDNDEAFSFGKDFLLLSSAKFTPGHIDISQRKGVDVLLPLACVLPMQRHLWWQELKVLPINLADILLGNEIAQMGFKIVSKVLKNKVSGTNNKAMAALVFAELVRDMVDQPTELLQKAREEAVGRREFLKAITAEFTRKLNQAEADQVLVRDFA | not soluble |
| MFASKDINDLIAIVAGLRNRESGCIWNIKQTFESLIPYMLEEVYEVIDAIERKNRTDLCDELGDLLLQVVYHATIAQEEGSFTFEDVVYAITSKMIRRHPHVFGNAEQKKRGFIEDEWERIKKTERAEQNKCYEAVNLPTNSTTSILEKIKKLQPAHQEALALQKAAATVGFNWHESHKFFAKIEEEINELKDAIKNDKTSDIEAEFGDLYFSLLNLALHLNIDSQKALKKTNTKFRNRFTYIEESLYTQSKTLANTSLKEMESLWNKAKNKK | not soluble |
| MSPEQSPFHAGELAIQERAGVREQVAGFGSRAIRTFMPDQHREFFALLSLLLVGSLDADGYPSASVLWGPPGFARSPEPTRLRIDNLPQADDPLAANLEAGTRLGILGLEWPTRRRNRMNGRVLARDGKGFTVGVEQSFGNCPKYIQARSHQPVSRIASPALQGEGLDPRWLSLVSCSDTLFIASQHADPLRGGVDVSHRGGPPGFLRLGADGRLWLPDYAGNRLFNTLGNLLQDPRCGLLFIDFDNGDLLHLHAEAELFWPGSQPSIPWPAGAERLLALRPAGWRWRRGRLPLAFGEPQPSPFLPAGES | not soluble |
| MDQLWANRAASAEAAITERHLKKLWGLPGTQLGVVAWPPARKYTLFGTWHYWWQAHLLDCLVDAQVRDPQPERTTRIERQLRAHRLRNNLSWVNDYYDDMAWLALAIERAGRLAGVEKPTALRKLCDQFVTAWVPEDGGGIPWRKQDQFFNAPANGPAGIFLARYDDRLRRAQQMADWIDETLIDPDTHLVFDGIKAGSLVRAQYTYCQGVVLGLEVELAVRTQDPRHAPRVRRLVAAVDKEMTTDGVIKGAGGGDGGLFNGILARYLALVATTLPGETPEDIAARDTARTIVLKSARSAWDHRQTVDGLPLFSAFWDRNAEIPTAGGKEAEFVEGAVNASSVPERDLSVQLAGWMLMEAAHSVDSVDAEDAAGDQNGAGDGEVGHDENEDEELEHHHHHH | soluble |
| MEKSAGRGRPSVSVERIVATALEAVDEVGAQAFNMRMLAERLGSGTATLYRHFASKDEILIYVVDSVLGELLADQPEAVELVPQGQGSEGYSWQKACASGAERLYGVLRRHPGILPLLVSQIPIGPNGLKRREQGIALFLANGFPAELAARAYTSVAHYVLGFAIQQHSSASSEAAEGEELVEFFAALDASEYPAIATAGRHLPGISVEEEFRFGLKLIIDGLELAASAWRKADGC | not soluble |
| MRSMWALLSVADKRGIVDFARGLAELGFRLLATGGTYRALREAGLPVTYISDFTGFPEILEGRVKTLHPKVHAALLARPDQEEELKALGLERIGVLAVNLYPFRETVARGASFAEALEQIDIGGPAMLRAAAKNHQAVLPVCDPEDYPRVLEALKAGPSPDFRQKLARKAFAHTALYDAAIAEWLSGEKFPEEKLLALRREASLRYGENPHQEAALYRVVGERGPLLEAQVLQGKAMSFNNYLDAEAAWNLVSEFAEPACVAVKHQNPCGVALGETPLEAYRKAYEADPVSIFGGIVAFNRPLDGPTAEALAEVFLEVVLAPSFSPEARAVLARKKNLRLLQVPFPAQGPYLDLRRLRGGVLLQDADTEDPAEPKVVTERAPTPEEWPDLRFAWKVVKHVRSNAIVVAKGGMTLGIGVGQTNRLAAARHALEAAGERAKGAVLASDAFFPFDDVVRLAASYGIAAIIQPGGSVRDQDSIRAAEEAGIAMVFTGVRHFRH | soluble |
| MSNQYDPSQPVVFTDFSPKEGGMRTRLYIEGSNFGNDPTKIHITIGGEKTKTIGADGKKIYCMVPSKAFDGIINVRVDGPDGKPIAEHTFEEEFKYTPATIVGTLLRKVDEDNNSAFQEGSFDEGASIPSNDCMVFDPKYKDGDNRLLFSSNHSDGLHLIDLTERTVKRLFPRTGYSTMYSFTFSADGDTLLFTDDHGQDNTTRANIYYSLRRENFRRIRPYNYGRTAYSLVYMDDGTIFYTTWWEGKVYKMIRNGAIPNIDENAEVAFSLSQISAVGGSHTILFRHPSNKFMYMLSDNFGAVFRADYDPVAKTFGNPSIIAGNMNDKSFKEGTGGSARFNKPQFGVFVKNEKYGEGIGPDNDQYDFYFCDRENHCIWKLDPHGVASLAAGRSNENADGKIWGYVDGNPLHEARFNQPAGLAYDPDTDMFYIGDIDNKGIRYMTTELEHHHHHH | not soluble |
| MIPNFRGFNKKTKKMYSIDGFKSSERKIYRCSLADDEFRSGRLETFHFVEDNLVEKCNRPPERFYRQKQVRKSDRRLMARQ | not soluble |
| IGEVSYGAKFVLSDDQQKILRYPNDSYDVGSYYKGEHLNDIWGLTTIGIAKSQEEMDAHLAKVDQSSVGTNWGVGDIMYADLDGDGKISNGTNKLGDTGDYRIIGNSTPRFKYGITLDAAWKGFDFSIFMQGIGKRDLWLDGCYFWGANGQGNEWQSTGFAEHWDFFRPEGDPLGANLNSYYPRVNFSGDRNTKVQTRYLQNGAYLRLKNVQLGYTLPRVWTEKAGISSVRVYVSGDNLATITSLSKIFDPEATGSLAGTGSGKLYPLQRVISVGVNVNF | not soluble |
| MGSSHHHHHHSSGLVPRGSHMKLQFNLKAYFKTSADPTPAKDAIAALFEEANSTLLTRGAPEGQGAKVTEWKLGEDRIELTLQSGRYVRVHDAIFRLRKQLAEALGKKYKIGIRGIEVESFIIKVPADHELRMLKVPYIKSMENIEGGIQLELEVGEAEMKNRVPDRILTLLEEKIEAAQYGAKAEHWNLLWQREPMEHPFKEDPTQAMMKEGWLKRGSSRGQWIHGPQSARIFRTFEKIVLEELLEPLGYREMIFPKLVTWEVWMKSGHAKGVYPEIYYVCPPQTRDPDYWEEVADYYKVTHEVPTKLIKEKIAEPIGGMCYAQCPPFWMYVAGETLPNEEIPVKVFDRSGTSHRYESGGIHGIERVDEFHRIEIVWIGTKEEVLKCAEELHDRYMHIFNDILDIEWRKARVTPWFMAQEGLLGLAEENTVGTTDYEACLPYRGPDGEWLEFQNVSINGDKYPKGFNVKLQSGDELWSGCSGVGLERWAAVFLAQKGLDPANWPEEFRNRVGEMPKGIRFL | soluble |
| MGSDKIHHHHHHMKFSEPLVEGRLIRRYKRFLADVQLPDGTEVTAHCPNTGSMLGCQPENARVWLSRSDNPKRKLQYTWELVETEPGVLACVNTVRPNAQARAAIEAGVVQSLAGYAQCRAEVRYGSEKSRIDLLLSGHDHDPDAWVEVKNVTLAEGGEGYFPDAVTERGQKHLRELMAQVQNGDRAVLFFVVNHTGIEQVRPADHIDARYGQLLREACEAGVEVIAYRAALAGEDGDPSGRLELVEEVPVSLEP | not soluble |
| MEPHKVVPLSKPHPPVVGKVTHHSIELYWDLEQKEKRQGPQEQWLRFSIEEEDPKMHSYGVIYTGYATRHVVEGLEPRTLYKFRLKVTSPSGEYEYSPVVSVATTRE | soluble |
| PFSWMKFVVISRTDLEENGREILIHECAHIRKHHSWDLLIADICIFFQWFNPGAWLLKQELQNIHEYEADEAVINEGINARDYQLLLI | not soluble |
| MNRHPALSLDLDDGIDRKVLGQLRQRFLAVNAGRLQRARQALSSRQERVLRLLPLLFHINHPLLPGYLSASTPAGLSGFEADDEVLAEAQRLARSFVYKPRRQEPAQQPIHGLFLMGSLGSLAQEEQSDLDLWVCHAPELEPGARQELRRKCALIEDWARSQGSEVHCFLIDVARFGQDEREDRKEPGGDGNTQHFLLLDEFYRSAIWLGGRTPLWWLVPPAHERRYDEYCRTLLGKRFIRAEEVLDLGHLAHIPAREFIGAGLWQLSKAIDSPYKSLLKLLLTEAYASEHPRVRCVALRFKEQVFAGQLDLDELDPYVLVYRHLERYLREQQAPERLELVRRCLYLKVGRKLGGRQRQAQKGWQHLSMERLVAEWQWEPRRLALLDSRSQWKMRQVMEERRTVVNELTYSYRLLFQIARQQGADSGIDSRDLGLLGRRLYAAFERKAGKVENINPGIAPDLGEDVLTLVQLPADDGREQAQWAIFPGALGAHQWPDYAPLKRSLRLVELLAWCHRNGVIDSATRLSLHPGQSDLGDAELDNLLGSLRQFLPVPLATVDDADLLQPRRLKSVLLLVNVGVDPLRHHSQMNLHMATGRTDVLGYAGVRDNLVLTLDQLSLNSWNELTVRHYAGPQALPECLAEFLDAVREKPGSPPQPPELMVRCFCRNRAAAIAVRVEELFRETYGQLLGGQPSRYLLQIRQQYHLLEMSPEAVSHESLPDLPSLLQHLGRERDGYSALKLDRHALEGEDLGLILSMGRPDCIQVFYRRDFDSAEISLLDERNALWRQRQALRDERSLLAPLQRFLQSLLYRRNALSLAEQVPAALDIRYYELLSNDGRVHVEPREAPEALAGPALYELQALLERGERKRVQVTLYCDHQEFSELEYGAGLFKAVARHILAHRAESEPYPCYLTDLDLSRLFADEQPQTLHYLRYKSVLETALNQALLE | not soluble |
| MSGTRKKALLKVIILGDSGVGKTSLMNQYVNRRFSNQYKATIGADFLTRDVNIDDRTVTLQIWDTAGQERFQSLGVAFYRGADCCVLAFDVTNAASFKSLDSWRDEFLIQASPRDPDHFPFVLLGNKVDLESQRAVSSKRAQSWCQTKGNIPYYEVSAKEALNVEAAFLAIARDALARESQETNDFPEFPDQIRLNPNQQNQQNSGCNC | not soluble |
| KVNNIMKKLLSSMILIWGGLISFSNNITGPRHRIEISAGFINDRQNATMGNNIFISNSISYIPEWKIQVNKKFDVTFGPKVVLNFSNFITVSNGTAKAASSSNNANPVTITPSLILGGELDFNYSVKENLKIYTGLEVGTGIGFQISTVGSNVQNPEFRTSSKIALGVKINEKYNIAIYTADIKGLLGLEAGYTF | not soluble |
| MPIHSLSLAGFRSIRKLTLELDALNVVVGANGCGKSNLYKSIQLLHAAAEGGLSAALAAEGGAQKAMWAGGTRRGDKARVPKRMILSARLDDYDYELQLGYPEPSCSLFALDPLVKEESLWLAGHGRRPSTLLLERRNQAAFLCGVEGERNSYPASLRAEESLFGQLAEPHRYPELSQVRETLRNWRFYHEFAIWPGSPLRAPQVGIRSPVLAHDGANLAAAFQTIVEIGDHELLHSVLTDAFPDSRFLVDAQQGRFQMLMRRDGLLRPLEAAELSDGTLRFLCLAVALLSPRPPAFMALNEPENSLHPALLPALARLIAEASRHSQLWVTSHSPELAERIRRHRPLKTFQLSLRDGETVLQDDLEHHHHHH | not soluble |
| MGSDKIHHHHHHLTTVLNASPQRFVNTPAVQRIAQRALRYLQSGFSIHLRGAAGVGKTTLAMHLADLLNQPIILLFGDDEFKTSDLIGNQLGYTRKKVVDNFIHSVIKVEDEVRQHWVDARLTLACKEGFTLVYDEFNRSHPEVNNVLLSVLEERLLVLPTNQHRAEYIRVHPQFRAILTSNPQEYCGVHATQDALMDRVITIDMPTPDELSQQEIVVHKTGIDSEKAEVIVRIVRTFWSRSGSGQGGGLRSCLMIAKICHEHEISVNPGDPSFQDICADILLSRTNQPLIEATRLLEEVLSEFYHRINTQSQPSEIIPNNQNQIVLEQRVPYEHEVYNYLCNSPGRRFSELAVELGIDRSQIVAALKSLREQGVLVQMQGNAESPSISQTVAFDSGHLINK | not soluble |
